Reference: patent US20050064514A1 (MacroGenics, published 2005)
Positions count from the first letter of the chain named. Names may count otherwise.

B1: ch4-4-20 K288N, A330S, P396L (antibody)
chain: EPKSCDKTHTCPPCPAPELLGGPSVFLFPPKPKDTLMISRTPEVTCVVVDVSHEDPEVKFNWYVDGVEVHNANTKPREEQYNSTYRVVSVLTVLHQDWLNGKEYKCKVSNKALPSPIEKTISKAKGQPREPQVYTLPPSREEMTKNQVSLTCLVKGFYPSDIAVEWESNGQPENNYKTTPLVLDSDGSFFLYSKLTVDKSRWQQGNVFSCSVMHEALHNHYTQKSLSLSPGK
B2: ch4-4-20 E293V, Q295E, A327T (antibody)
chain: B1 chain with N73K, E78V, Q80E, A112T, S115A, L181P
B3: ch4-4-20 Y319F, P352L, P396L (antibody)
chain: B1 chain with N73K, Y104F, S115A, P137L
B4: ch4-4-20 MgFc66 (A330V, G427M) (antibody)
chain 1: not shown
chain 2: DVVMTQTPLSLPVSLGDQASISCRSSQSLVHSNGNTYLRWYLQKPGQSPKVLIYKVSNRFSGVPDRFSGSGSGTDFTLKISRVEAEDLGVYFCSQSTHVPWTFGGGTKLEIKRTVAAPSVFIFPPSDEQLKSGTASVVCLLNNFYPREAKVQWKVDNALQSGNSQESVTEQDSKDSTYSLSSTLTLSKADYEKHKVYACEVTHQGLSSPVTKSFNRGEC

Tests used:
[1] = target: T1, FcγRIIB-Fc fusion protein (soluble dimeric FcγRIIB) (human, UniProt P31994 43-217); experiment: BIAcore
T1 construct: extracellular domain; also called FcRIIB-Fc; FcR2B; not shown: hinge-CH2-CH3 domain of human IgG2
T1 sequence (looked up): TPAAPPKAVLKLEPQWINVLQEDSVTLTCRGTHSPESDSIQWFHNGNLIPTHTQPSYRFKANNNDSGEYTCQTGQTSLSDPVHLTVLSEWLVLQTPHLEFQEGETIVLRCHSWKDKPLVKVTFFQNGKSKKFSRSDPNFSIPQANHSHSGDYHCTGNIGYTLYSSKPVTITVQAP

[2] = target: T1, FcγRIIB-Fc fusion protein (soluble …); experiment: BIAcore separate fit
[3] = target: T1, FcγRIIB-Fc fusion protein (soluble …); experiment: BIAcore ch4-4-20

Binder	koff [1] [s⁻¹]	koff [2] [s⁻¹]	Koff WT/Mut [3]
B1	0.05	0.05	–
B2	0.074	–	1.3
B3	0.041	–	2.29
B4	–	–	0.62
